Paper PMC11574045, “A cofactor-induced repressive type of transcription factor condensation can be induced by synthetic peptides to suppress tumorigenesis” (The EMBO Journal, 2024)

B1: TOX (protein, UniProt O94900 1-526, looked up)
Thymocyte …: MDVRFYPPPAQPAAAPDAPCLGPSPCLDPYYCNKFDGENMYMSMTEPSQDYVPASQSYPGPSLESEDFNIPPITPPSLPDHSLVHLNEVESGYHSLCHPMNHNGLLPFHPQNMDLPEITVSNMLGQDGTLLSNSISVMPDIRNPEGTQYSSHPQMAAMRPRGQPADIRQQPGMMPHGQLTTINQSQLSAQLGLNMGGSNVPHNSPSPPGSKSATPSPSSSVHEDEGDDTSKINGGEKRPASDMGKKPKTPKKKKKKDPNEPQKPVSAYALFFRDTQAAIKGQNPNATFGEVSKIVASMWDGLGEEQKQVYKKKTEAAKKEYLKQLAAYRASLVSKSYSEPVDVKTSQPPQLINSKPSVFHGPSQAHSALYLSSHYHQQPGMNPHLTAMHPSLPRNIAPKPNNQMPVTVSIANMAVSPPPPLQISPPLHQHLNMQQHQPLTMQQPLGNQLPMQVQSALHSPTMQQGFTLQPDYQTIINPTSTAAQVVTQAMEYVRSGCRNPPPQPVDWNNDYCSSGGMQRDKALYLT
B2: TIEG (protein, UniProt Q13118 1-480, looked up)
Krueppel-like factor 10: MLNFGASLQQTAEERMEMISERPKESMYSWNKTAEKSDFEAVEALMSMSCSWKSDFKKYVENRPVTPVSDLSEEENLLPGTPDFHTIPAFCLTPPYSPSDFEPSQVSNLMAPAPSTVHFKSLSDTAKPHIAAPFKEEEKSPVSAPKLPKAQATSVIRHTADAQLCNHQTCPMKAASILNYQNNSFRRRTHLNVEAARKNIPCAAVSPNRSKCERNTVADVDEKASAALYDFSVPSSETVICRSQPAPVSPQQKSVLVSPPAVSAGGVPPMPVICQMVPLPANNPVVTTVVPSTPPSQPPAVCPPVVFMGTQVPKGAVMFVVPQPVVQSSKPPVVSPNGTRLSPIAPAPGFSPSAAKVTPQIDSSRIRSHICSHPGCGKTYFKSSHLKAHTRTHTGEKPFSCSWKGCERRFARSDELSRHRRTHTGEKKFACPMCDRRFMRSDHLTKHARRHLSAKKLPNWQMEVSKLNDIALPPTPAPTQ
B3: THAP1 (protein, UniProt Q9NVV9 1-213, looked up)
THAP domain-containing …: MVQSCSAYGCKNRYDKDKPVSFHKFPLTRPSLCKEWEAAVRRKNFKPTKYSSICSEHFTPDCFKRECNNKLLKENAVPTIFLCTEPHDKKEDLLEPQEQLPPPPLPPPVSQVDAAIGLLMPPLQTPVNLSVFCDHNYTVEDTMHQRKRIHQLEQQVEKLRKKLKTAQQRCRRQERQLEKLKEVVHFQKEKDDVSERGYVILPNDYFEIVEVPA
B4: THAP10 (protein, UniProt Q9P2Z0 1-257, looked up)
THAP domain-containing …: MPARCVAAHCGNTTKSGKSLFRFPKDRAVRLLWDRFVRGCRADWYGGNDRSVICSDHFAPACFDVSSVIQKNLRFSQRLRLVAGAVPTLHRVPAPAPKRGEEGDQAGRLDTRGELQAARHSEAAPGPVSCTRPRAGKQAAASQITCENELVQTQPHADNPSNTVTSVPTHCEEGPVHKSTQISLKRPRHRSVGIQAKVKAFGKRLCNATTQTEELWSRTSSLFDIYSSDSETDTDWDIKSEQSDLSYMAVQVKEETC
B5: THRB (protein, UniProt P10828 1-461, looked up)
Thyroid hormone receptor beta: MTPNSMTENGLTAWDKPKHCPDREHDWKLVGMSEACLHRKSHSERRSTLKNEQSSPHLIQTTWTSSIFHLDHDDVNDQSVSSAQTFQTEEKKCKGYIPSYLDKDELCVVCGDKATGYHYRCITCEGCKGFFRRTIQKNLHPSYSCKYEGKCVIDKVTRNQCQECRFKKCIYVGMATDLVLDDSKRLAKRKLIEENREKRRREELQKSIGHKPEPTDEEWELIKTVTEAHVATNAQGSHWKQKRKFLPEDIGQAPIVNAPEGGKVDLEAFSHFTKIITPAITRVVDFAKKLPMFCELPCEDQIILLKGCCMEIMSLRAAVRYDPESETLTLNGEMAVTRGQLKNGGLGVVSDAIFDLGMSLSSFNLDDTEVALLQAVLLMSSDRPGLACVERIEKYQDSFLLAFEHYINYRKHHVTHFWPKLLMKVTDLRMIGACHASRFLHMKVECPTELFPPLFLEVFED
B6: THRA (protein, UniProt P10827 1-490, looked up)
Thyroid hormone receptor alpha: MEQKPSKVECGSDPEENSARSPDGKRKRKNGQCSLKTSMSGYIPSYLDKDEQCVVCGDKATGYHYRCITCEGCKGFFRRTIQKNLHPTYSCKYDSCCVIDKITRNQCQLCRFKKCIAVGMAMDLVLDDSKRVAKRKLIEQNRERRRKEEMIRSLQQRPEPTPEEWDLIHIATEAHRSTNAQGSHWKQRRKFLPDDIGQSPIVSMPDGDKVDLEAFSEFTKIITPAITRVVDFAKKLPMFSELPCEDQIILLKGCCMEIMSLRAAVRYDPESDTLTLSGEMAVKREQLKNGGLGVVSDAIFELGKSLSAFNLDDTEVALLQAVLLMSTDRSGLLCVDKIEKSQEAYLLAFEHYVNHRKHNIPHFWPKLLMKEREVQSSILYKGAAAEGRPGGSLGVHPEGQQLLGMHVVQGPQVRQLEQQLGEAGSLQGPVLQHQSPKSPQQRLLELLHRSGILHARAVCGEDDSSEADSPSSSEEEPEVCEDLAGNAASP
B7: TLE2 (protein, UniProt Q04725 1-743, looked up)
Transducin-like enhancer …: MYPQGRHPTPLQSGQPFKFSILEICDRIKEEFQFLQAQYHSLKLECEKLASEKTEMQRHYVMYYEMSYGLNIEMHKQAEIVKRLSGICAQIIPFLTQEHQQQVLQAVERAKQVTVGELNSLIGQQLQPLSHHAPPVPLTPRPAGLVGGSATGLLALSGALAAQAQLAAAVKEDRAGVEAEGSRVERAPSRSASPSPPESLVEEERPSGPGGGGKQRADEKEPSGPYESDEDKSDYNLVVDEDQPSEPPSPATTPCGKVPICIPARRDLVDSPASLASSLGSPLPRAKELILNDLPASTPASKSCDSSPPQDASTPGPSSASHLCQLAAKPAPSTDSVALRSPLTLSSPFTTSFSLGSHSTLNGDLSVPSSYVSLHLSPQVSSSVVYGRSPVMAFESHPHLRGSSVSSSLPSIPGGKPAYSFHVSADGQMQPVPFPSDALVGAGIPRHARQLHTLAHGEVVCAVTISGSTQHVYTGGKGCVKVWDVGQPGAKTPVAQLDCLNRDNYIRSCKLLPDGRSLIVGGEASTLSIWDLAAPTPRIKAELTSSAPACYALAVSPDAKVCFSCCSDGNIVVWDLQNQTMVRQFQGHTDGASCIDISDYGTRLWTGGLDNTVRCWDLREGRQLQQHDFSSQIFSLGHCPNQDWLAVGMESSNVEILHVRKPEKYQLHLHESCVLSLKFASCGRWFVSTGKDNLLNAWRTPYGASIFQSKESSSVLSCDISRNNKYIVTGSGDKKATVYEVVY
B8: THAP6 (protein, UniProt Q8TBB0 1-222, looked up)
THAP domain-containing …: MVKCCSAIGCASRCLPNSKLKGLTFHVFPTDENIKRKWVLAMKRLDVNAAGIWEPKKGDVLCSRHFKKTDFDRSAPNIKLKPGVIPSIFDSPYHLQGKREKLHCRKNFTLKTVPATNYNHHLVGASSCIEEFQSQFIFEHSYSVMDSPKKLKHKLDHVIGELEDTKESLRNVLDREKRFQKSLRKTIRELKDECLISQETANRLDTFCWDCCQESIEQDYIS
B9: THAP4 (protein, UniProt Q8WY91 1-577, looked up)
Peroxynitrite isomerase THAP4: MVICCAAVNCSNRQGKGEKRAVSFHRFPLKDSKRLIQWLKAVQRDNWTPTKYSFLCSEHFTKDSFSKRLEDQHRLLKPTAVPSIFHLTEKKRGAGGHGRTRRKDASKATGGVRGHSSAATSRGAAGWSPSSSGNPMAKPESRRLKQAALQGEATPRAAQEAASQEQAQQALERTPGDGLATMVAGSQGKAEASATDAGDESATSSIEGGVTDKSGISMDDFTPPGSGACKFIGSLHSYSFSSKHTRERPSVPREPIDRKRLKKDVEPSCSGSSLGPDKGLAQSPPSSSLTATPQKPSQSPSAPPADVTPKPATEAVQSEHSDASPMSINEVILSASGACKLIDSLHSYCFSSRQNKSQVCCLREQVEKKNGELKSLRQRVSRSDSQVRKLQEKLDELRRVSVPYPSSLLSPSREPPKMNPVVEPLSWMLGTWLSDPPGAGTYPTLQPFQYLEEVHISHVGQPMLNFSFNSFHPDTRKPMHRECGFIRLKPDTNKVAFVSAQNTGVVEVEEGEVNGQELCIASHSIARISFAKEPHVEQITRKFRLNSEGKLEQTVSMATTTQPMTQHLHVTYKKVTP
B10: THAP8 (protein, UniProt Q8NA92 1-274, looked up)
THAP domain-containing …: MPKYCRAPNCSNTAGRLGADNRPVSFYKFPLKDGPRLQAWLQHMGCEHWVPSCHQHLCSEHFTPSCFQWRWGVRYLRPDAVPSIFSRGPPAKSQRRTRSTQKPVSPPPPLQKNTPLPQSPAIPVSGPVRLVVLGPTSGSPKTVATMLLTPLAPAPTPERSQPEVPAQQAQTGLGPVLGALQRRVRRLQRCQERHQAQLQALERLAQQLHGESLLARARRGLQRLTTAQTLGPEESQTFTIICGGPDIAMVLAQDPAPATVDAKPELLDTRIPSA
B11: TOB1 (protein, UniProt P50616 1-345, looked up)
Protein Tob1: MQLEIQVALNFIISYLYNKLPRRRVNIFGEELERLLKKKYEGHWYPEKPYKGSGFRCIHIGEKVDPVIEQASKESGLDIDDVRGNLPQDLSVWIDPFEVSYQIGEKGPVKVLYVDDNNENGCELDKEIKNSFNPEAQVFMPISDPASSVSSSPSPPFGHSAAVSPTFMPRSTQPLTFTTATFAATKFGSTKMKNSGRSNKVARTSPINLGLNVNDLLKQKAISSSMHSLYGLGLGSQQQPQQQQQPAQPPPPPPPPQQQQQQKTSALSPNAKEFIFPNMQGQGSSTNGMFPGDSPLNLSPLQYSNAFDVFAAYGGLNEKSFVDGLNFSLNNMQYSNQQFQPVMAN
B12: TOX2 (protein, UniProt Q96NM4 1-488, looked up)
TOX high mobility group box …: MQQTRTEAVAGAFSRCLGFCGMRLGLLLLARHWCIAGVFPQKFDGDSAYVGMSDGNPELLSTSQTYNGQSENNEDYEIPPITPPNLPEPSLLHLGDHEASYHSLCHGLTPNGLLPAYSYQAMDLPAIMVSNMLAQDSHLLSGQLPTIQEMVHSEVAAYDSGRPGPLLGRPAMLASHMSALSQSQLISQMGIRSSIAHSSPSPPGSKSATPSPSSSTQEEESEVHFKISGEKRPSADPGKKAKNPKKKKKKDPNEPQKPVSAYALFFRDTQAAIKGQNPSATFGDVSKIVASMWDSLGEEQKQSSPDQGETKSTQANPPAKMLPPKQPMYAMPGLASFLTPSDLQAFRSGASPASLARTLGSKSLLPGLSASPPPPPSFPLSPTLHQQLSLPPHAQGALLSPPVSMSPAPQPPVLPTPMALQVQLAMSPSPPGPQDFPHISEFPSSSGSCSPGPSNPTSSGDWDSSYPSGECGISTCSLLPRDKSLYLT

Tested on: HEK293FT cells transfected with TF library
Assay: Screening of TF condensates based on fluorescent puncta
Assay type: cell-based
Details: Figure 1B numerical data; TF library screen, one value per transcriptional factor
In short: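 Puncta scoring used automated confocal imaging of fifty random fields per well, after anti-Flag or anti-GAL4 immunofluorescence (Alexa 488) in PFA-fixed cells. HEK293FT cells carried TF library plasmids delivered with PEI (1.6 μg/ml DNA). At 60 h they were switched for 12 h to glucose-containing or glucose-free medium.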

Molecule	Z score of condensed fraction
B1	-0.4918
B2	1.047
B3	-0.6542
B4	1.236
B5	-0.3414
B6	-0.4575
B7	0.1994
B8	2.571
B9	-0.8956
B10	1.115
B11	-0.3688
B12	2.501
